B1: BEX1 (parent)
chain: EENMERIGEEVRQLMEKLREKQLS

Variants of: B1
Experiment: protein stability index of a GFP-peptide fusion (GPS, HEK-293T) (PSI 1-6); higher = more stable
Settings: c terminus: a fixed tail appended
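Note: lentivirally expressed fusions sorted by FACS into six bins by GFP to DsRed ratio, PSI derived from sequencing read proportions per bin multiplied by bin number.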

**Q.** For EENMERIGEEVRQLMEKLREKNLS [Q22N], which protein stability index is on record?
**A.** 5.16

**Q.** With EENMERIGEEVRQLMEKLREKMLS [Q22M] as the variant, how does the protein stability index read?
**A.** 1.08

**Q.** Which protein stability index does the source give for EENMERIGEEVRQLMEKLREKDLS [Q22D] here?
**A.** 4.73

**Q.** With EENMERIGEEVRQLMEKLREKTLS [Q22T] as the variant, how does the protein stability index read?
**A.** 3.59

**Q.** For EENMERIGEEVRQLMEKLREKPLS [Q22P], which protein stability index is on record?
**A.** 3.67

**Q.** With EENMERIGEEVRQLMEKLREKWLS [Q22W] as the variant, how does the protein stability index read?
**A.** 2.28

**Q.** For EENMERIGEEVRQLMEKLREKCLS [Q22C], which protein stability index is on record?
**A.** 2.46

**Q.** Which protein stability index does the source give for EENMERIGEEVRQLMEKLREKSLS [Q22S] here?
**A.** 3.92

**Q.** With EENMERIGEEVRQLMEKLREKGLS [Q22G] as the variant, how does the protein stability index read?
**A.** 4.18

**Q.** With EENMERIGEEVRQLMEKLREKALS [Q22A] as the variant, how does the protein stability index read?
**A.** 2.82

**Q.** For EENMERIGEEVRQLMEKLRRKQLS [E20R], which protein stability index is on record?
**A.** 4.46

**Q.** With EENMERIGEEVRQLMEKLRSKQLS [E20S] as the variant, how does the protein stability index read?
**A.** 4.57

**Q.** For EENMERIGEEVRQLMEKLRHKQLS [E20H], which protein stability index is on record?
**A.** 3.74

**Q.** With EENMERIGEEVRQLMEKLRLKQLS [E20L] as the variant, how does the protein stability index read?
**A.** 4.29

**Q.** With EENMERIGEEVRQLMEKLRFKQLS [E20F] as the variant, how does the protein stability index read?
**A.** 2.75

**Q.** With EENMERIGEEVRQLMEKLRWKQLS [E20W] as the variant, how does the protein stability index read?
**A.** 2.19

**Q.** With EENMERIGEEVRQLMEKPREKQLS [L18P] as the variant, how does the protein stability index read?
**A.** 5.86

**Q.** With EENMERIGEEVRQLMEKIREKQLS [L18I] as the variant, how does the protein stability index read?
**A.** 4.48

**Q.** With EENMERIGEEVRQLMEKHREKQLS [L18H] as the variant, how does the protein stability index read?
**A.** 5.04

**Q.** With EENMERIGEEVRQLMEKTREKQLS [L18T] as the variant, how does the protein stability index read?
**A.** 5.53

**Q.** With EENMERIGEEVRQLMEKWREKQLS [L18W] as the variant, how does the protein stability index read?
**A.** 4.84

**Q.** Which protein stability index does the source give for EENMERIGEEVRQLMEKEREKQLS [L18E] here?
**A.** 5.35

**Q.** Which protein stability index does the source give for EENMERIGEEVRQLMEKKREKQLS [L18K] here?
**A.** 5.26

**Q.** For EENMERIGEEVRQLMEKCREKQLS [L18C], which protein stability index is on record?
**A.** 3.82

**Q.** For EENMERIGEEVRQLMEKMREKQLS [L18M], which protein stability index is on record?
**A.** 4.59

**Q.** Which protein stability index does the source give for EENMERIGEEVRWLMEKLREKQLS [Q13W] here?
**A.** 3.37

**Q.** With EENMERIGEEVRELMEKLREKQLS [Q13E] as the variant, how does the protein stability index read?
**A.** 5.38

**Q.** With EENMERIGEEVRMLMEKLREKQLS [Q13M] as the variant, how does the protein stability index read?
**A.** 4.5

**Q.** With EENMERIGEEVRGLMEKLREKQLS [Q13G] as the variant, how does the protein stability index read?
**A.** 5.2

**Q.** Which protein stability index does the source give for EENMERIGEEVRPLMEKLREKQLS [Q13P] here?
**A.** 4.79

**Q.** With EENMERIGEEVRTLMEKLREKQLS [Q13T] as the variant, how does the protein stability index read?
**A.** 3.45

**Q.** Which protein stability index does the source give for EENMERIGEEVRCLMEKLREKQLS [Q13C] here?
**A.** 4.53

**Q.** For EENMERIGEEVRHLMEKLREKQLS [Q13H], which protein stability index is on record?
**A.** 4.04

**Q.** Which protein stability index does the source give for EENMERIGEEVRILMEKLREKQLS [Q13I] here?
**A.** 4.23

**Q.** For EENMERIGIEVRQLMEKLREKQLS [E9I], which protein stability index is on record?
**A.** 4.39

**Q.** With EENMERIGFEVRQLMEKLREKQLS [E9F] as the variant, how does the protein stability index read?
**A.** 3.7

**Q.** Which protein stability index does the source give for EENMERIGPEVRQLMEKLREKQLS [E9P] here?
**A.** 4.98

**Q.** For EENMERIGYEVRQLMEKLREKQLS [E9Y], which protein stability index is on record?
**A.** 4.17

**Q.** For EENMERIGAEVRQLMEKLREKQLS [E9A], which protein stability index is on record?
**A.** 4.76

**Q.** For EENMERIGVEVRQLMEKLREKQLS [E9V], which protein stability index is on record?
**A.** 4.07

**Q.** Which protein stability index does the source give for EENMERIGKEVRQLMEKLREKQLS [E9K] here?
**A.** 4.2

**Q.** For EENMERIGNEVRQLMEKLREKQLS [E9N], which protein stability index is on record?
**A.** 4.02

**Q.** For EENMERIGDEVRQLMEKLREKQLS [E9D], which protein stability index is on record?
**A.** 3.63

**Q.** Which protein stability index does the source give for EENMERIGGEVRQLMEKLREKQLS [E9G] here?
**A.** 4.67

**Q.** With EENMERIGSEVRQLMEKLREKQLS [E9S] as the variant, how does the protein stability index read?
**A.** 4.51

**Q.** With EENMERIGEEVRQLTEKLREKQLS [M15T] as the variant, how does the protein stability index read?
**A.** 5.18

**Q.** For EENMERIGEEVRQLWEKLREKQLS [M15W], which protein stability index is on record?
**A.** 3.71

**Q.** Which protein stability index does the source give for EENMERIGEEVRQLPEKLREKQLS [M15P] here?
**A.** 5.5

**Q.** With EENMERIGEEVRQLNEKLREKQLS [M15N] as the variant, how does the protein stability index read?
**A.** 3.02

**Q.** Which protein stability index does the source give for EENMERIGEEVRQLEEKLREKQLS [M15E] here?
**A.** 4.89

**Q.** With EENMERIGEEVRQLLEKLREKQLS [M15L] as the variant, how does the protein stability index read?
**A.** 4.98

**Q.** With EENMERIGEEVRQLFEKLREKQLS [M15F] as the variant, how does the protein stability index read?
**A.** 4.08

**Q.** With EENMERIGEEVRQLYEKLREKQLS [M15Y] as the variant, how does the protein stability index read?
**A.** 4.89

**Q.** With EENMERIGEEVRQLIEKLREKQLS [M15I] as the variant, how does the protein stability index read?
**A.** 4.87

**Q.** Which protein stability index does the source give for EENMERIGEEVRQLVEKLREKQLS [M15V] here?
**A.** 3.78

**Q.** Which protein stability index does the source give for EENMERIGEEVRQLAEKLREKQLS [M15A] here?
**A.** 2.64

**Q.** For EENMERIGEEVRQRMEKLREKQLS [L14R], which protein stability index is on record?
**A.** 5.59

**Q.** For EENMERIGEEVRQQMEKLREKQLS [L14Q], which protein stability index is on record?
**A.** 5.03

**Q.** Which protein stability index does the source give for EENMERIGEEVRQWMEKLREKQLS [L14W] here?
**A.** 4.7

**Q.** Which protein stability index does the source give for EENMERIGEEVRQIMEKLREKQLS [L14I] here?
**A.** 4.06

**Q.** Which protein stability index does the source give for EENMERIGEEVRQHMEKLREKQLS [L14H] here?
**A.** 5.03

**Q.** With EENMERIGEEVRQMMEKLREKQLS [L14M] as the variant, how does the protein stability index read?
**A.** 3.38

**Q.** With EENMERIGEEVRQVMEKLREKQLS [L14V] as the variant, how does the protein stability index read?
**A.** 4.97

**Q.** With EENMERIGEEVRQCMEKLREKQLS [L14C] as the variant, how does the protein stability index read?
**A.** 4.33

**Q.** Which protein stability index does the source give for EENMERIGEEVRQNMEKLREKQLS [L14N] here?
**A.** 5.76

**Q.** For EENMERIGEEVRQYMEKLREKQLS [L14Y], which protein stability index is on record?
**A.** 4.58

**Q.** With EENMERIGEEVRQLMEKLREKQWS [L23W] as the variant, how does the protein stability index read?
**A.** 4.68

**Q.** Which protein stability index does the source give for EENMERIGEEVRQLMEKLREKQQS [L23Q] here?
**A.** 4.97

**Q.** Which protein stability index does the source give for EENMERIGEEVRQLMEKLREKQIS [L23I] here?
**A.** 5.26

**Q.** For EENMERIGEEVRQLMEKLREKQAS [L23A], which protein stability index is on record?
**A.** 4.63

**Q.** With EENMERIGEEVRQLMEKLREKQDS [L23D] as the variant, how does the protein stability index read?
**A.** 5.21

**Q.** With EENMERIGEEVRQLMEKLREKQHS [L23H] as the variant, how does the protein stability index read?
**A.** 4.65

**Q.** Which protein stability index does the source give for EENMERIGEEVRQLMEKLREKQES [L23E] here?
**A.** 4.46

**Q.** For EENMERIGEEVRQLMEKLREKQTS [L23T], which protein stability index is on record?
**A.** 5.19

**Q.** Which protein stability index does the source give for EENMERIGEEVRQLMEKLREKQYS [L23Y] here?
**A.** 5.23

**Q.** For EENMERIGEEVRQLMEKLREKQFS [L23F], which protein stability index is on record?
**A.** 4.58

**Q.** Which protein stability index does the source give for EENMERIGEEVRQLMEKLREKQSS [L23S] here?
**A.** 3.89

**Q.** With EENMERIGEEVRQLMEKLREKQVS [L23V] as the variant, how does the protein stability index read?
**A.** 3.88

**Q.** With EENMERIGEEVRQLMEKLREKQCS [L23C] as the variant, how does the protein stability index read?
**A.** 4.73

**Q.** With EENMERIGEEVRQLMEKLREKQMS [L23M] as the variant, how does the protein stability index read?
**A.** 4.1

**Q.** For EENMERIREEVRQLMEKLREKQLS [G8R], which protein stability index is on record?
**A.** 4.18

**Q.** For EENMERITEEVRQLMEKLREKQLS [G8T], which protein stability index is on record?
**A.** 4.55

**Q.** For EENMERIYEEVRQLMEKLREKQLS [G8Y], which protein stability index is on record?
**A.** 4.5

**Q.** For EENMERIKEEVRQLMEKLREKQLS [G8K], which protein stability index is on record?
**A.** 4.32

**Q.** Which protein stability index does the source give for EENMERIEEEVRQLMEKLREKQLS [G8E] here?
**A.** 4.04

**Q.** For EENMERIQEEVRQLMEKLREKQLS [G8Q], which protein stability index is on record?
**A.** 4.36

**Q.** With EENMERIHEEVRQLMEKLREKQLS [G8H] as the variant, how does the protein stability index read?
**A.** 4.09

**Q.** Which protein stability index does the source give for EENMERILEEVRQLMEKLREKQLS [G8L] here?
**A.** 3.33

**Q.** For EENMERIIEEVRQLMEKLREKQLS [G8I], which protein stability index is on record?
**A.** 3.62

**Q.** With EENMERIWEEVRQLMEKLREKQLS [G8W] as the variant, how does the protein stability index read?
**A.** 3.44

**Q.** For EENMERISEEVRQLMEKLREKQLS [G8S], which protein stability index is on record?
**A.** 4.47

**Q.** For EENMERIGEEVRQLMHKLREKQLS [E16H], which protein stability index is on record?
**A.** 4.49

**Q.** With EENMERIGEEVRQLMWKLREKQLS [E16W] as the variant, how does the protein stability index read?
**A.** 2.85

**Q.** Which protein stability index does the source give for EENMERIGEEVRQLMKKLREKQLS [E16K] here?
**A.** 4.32
